Laboratory results: patent US20060134709A1

Experiments:
C1q = experiment: BIAcore; 2B6 captured on soluble CD32B (2bLAvi) on a CM-5 chip, C1q injected
[1] = molecular target: soluble FcγRIIIA tetrameric complex (human) (UniProt P08637); experiment: FACS titration of tetramer, 1.4 to 0.0006 µM
[2] = molecular target: FcγRIIB-Fc fusion protein (human) (UniProt P31994); experiment: BIAcore
FcγRIIIA 158V (human) = FcγRIIIA 158V (human) (UniProt P08637); experiment: BIAcore
[3] = molecular target: soluble monomeric FcγRIIIA-linker-AVITAG (human) (UniProt P08637); experiment: BIAcore
[4] = molecular target: soluble monomeric FcγRIIIA-linker-AVITAG (human) (UniProt P08637); experiment: ELISA
[5] = molecular target: FcγRIIB-Fc fusion protein (human) (UniProt P31994); experiment: BIAcore: ch4-4-20 captured on BSA-FITC, FcγRIIB-Fc at two concentrations, separate fits, average of the two
[6] = molecular target: soluble monomeric FcγRIIIA-linker-AVITAG (human) (UniProt P08637); experiment: BIAcore: ch4-4-20 captured on BSA-FITC, FcγRIIIA at 200 nM and 800 nM, separate fits, average of the two concentrations
[7] = molecular target: FcγRIIB-Fc fusion protein (human) (UniProt P31994); experiment: ELISA of FcγRIIB-Fc binding; OD listed beside the sensorgrams
[8] = molecular target: soluble monomeric FcγRIIIA-linker-AVITAG (human) (UniProt P08637); experiment: ELISA of FcγRIIIA binding; OD listed beside the sensorgrams
[9] = molecular target: FcγRIIB-Fc fusion protein (human) (UniProt P31994); experiment: ELISA
soluble FcγRIIB (human) = soluble FcγRIIB (human) (UniProt P31994); experiment: ELISA
[10] = molecular target: FcγRIIB-Fc fusion protein (human) (UniProt P31994); experiment: BIAcore; remark: listed apart in the source
monomeric human IgG [11] = experiment: direct ELISA on plate-coated human IgG, detection with DJ130c and anti-mouse peroxidase
monomeric human IgG [12] = experiment: ELISA

Chain of soluble monomeric FcγRIIIA-linker-AVITAG (human) (P08637 17-203 F176V limits assumed, form in doubt): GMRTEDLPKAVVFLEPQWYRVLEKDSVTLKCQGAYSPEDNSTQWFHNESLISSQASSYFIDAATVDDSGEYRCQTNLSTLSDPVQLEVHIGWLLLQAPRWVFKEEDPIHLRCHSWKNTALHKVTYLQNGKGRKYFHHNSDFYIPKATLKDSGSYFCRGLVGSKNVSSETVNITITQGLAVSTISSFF
Chain of FcγRIIIA 158V (human) (P08637 17-208 F176V): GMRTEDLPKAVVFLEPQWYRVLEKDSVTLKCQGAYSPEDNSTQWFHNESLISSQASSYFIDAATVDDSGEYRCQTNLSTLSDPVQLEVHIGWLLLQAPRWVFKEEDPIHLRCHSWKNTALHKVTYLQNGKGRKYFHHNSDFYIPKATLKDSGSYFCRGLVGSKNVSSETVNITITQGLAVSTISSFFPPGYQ
Chain of FcγRIIB-Fc fusion protein (human) (P31994 43-217): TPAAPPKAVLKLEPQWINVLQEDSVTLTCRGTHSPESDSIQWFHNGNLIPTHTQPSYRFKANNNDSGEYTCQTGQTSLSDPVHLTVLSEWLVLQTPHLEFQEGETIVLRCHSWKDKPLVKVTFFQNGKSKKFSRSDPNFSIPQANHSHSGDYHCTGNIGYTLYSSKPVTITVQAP
Chain of C1q (P02745 23-245, chain 1 of 3): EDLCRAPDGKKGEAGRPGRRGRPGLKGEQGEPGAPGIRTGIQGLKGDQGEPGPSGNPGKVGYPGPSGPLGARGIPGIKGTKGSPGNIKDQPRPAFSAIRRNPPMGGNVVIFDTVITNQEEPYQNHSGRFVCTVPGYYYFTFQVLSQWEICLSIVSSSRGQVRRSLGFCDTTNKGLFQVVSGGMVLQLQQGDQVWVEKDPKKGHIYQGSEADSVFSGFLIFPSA
Chain of C1q (P02746 28-253, chain 2 of 3, further chain): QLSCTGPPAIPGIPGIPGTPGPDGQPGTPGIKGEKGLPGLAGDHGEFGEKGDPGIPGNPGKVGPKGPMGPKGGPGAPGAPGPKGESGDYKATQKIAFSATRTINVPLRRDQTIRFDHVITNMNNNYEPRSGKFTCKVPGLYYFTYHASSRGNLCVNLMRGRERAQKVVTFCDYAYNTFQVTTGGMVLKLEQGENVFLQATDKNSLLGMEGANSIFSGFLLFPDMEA
Chain of C1q (P02747 29-245, chain 3 of 3, further chain): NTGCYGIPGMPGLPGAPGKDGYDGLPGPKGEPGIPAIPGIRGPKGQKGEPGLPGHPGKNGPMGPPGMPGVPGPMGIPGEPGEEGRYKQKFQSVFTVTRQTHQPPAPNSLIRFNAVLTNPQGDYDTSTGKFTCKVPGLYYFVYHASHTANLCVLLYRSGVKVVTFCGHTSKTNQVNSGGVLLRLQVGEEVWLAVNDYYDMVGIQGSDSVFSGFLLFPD
Chain of soluble FcγRIIIA tetrameric complex (human) (P08637 17-203 F176V limits assumed, form in doubt, one chain of several): as the sequence (P08637 17-203 F176V limits assumed, form in doubt) above

| Substance | Kd [2] | Koff WT/Mut [2] | koff [2] | Koff WT/Mut (FcγRIIIA 158V (human)) | Kd [3] | koff [3] | fold increase vs wt [4] | fold increase vs wt (soluble FcγRIIB (human)) | ELISA, OD [4] | other results |
| --- | --- | --- | --- | --- | --- | --- | --- | --- | --- | --- |
| 2B6 (panel FIG. 34B-1) (antibody) |  |  |  |  |  |  |  |  |  | koff (C1q): 0.13 s⁻¹ |
| 2B6 (panel FIG. 34B-2) (antibody) |  |  |  |  |  |  |  |  |  | Kd (C1q): 7 nM; koff (C1q): 0.06 s⁻¹ |
| Aga2p-CH1-CH3 fusion (pYD-CH1), wild type Fc on yeast |  |  |  |  |  |  |  |  |  | Kd [1]: 6 nM |
| ch4-4-20 E293V, Q295E, A327T (antibody) | 86 nM | 1.3 | 0.074 s⁻¹ | 0.86 | 195 nM | 0.198 s⁻¹ | 0.4 x |  |  | fold vs wt [4]: 1.4 X |
| ch4-4-20 F243L, R255L (antibody) | 74.7 nM |  | 0.09 s⁻¹ |  | 90 nM | 0.075 s⁻¹ |  |  |  | Kd [5]: 82.3 nM; koff [5]: 0.1 s⁻¹; Kd [6]: 91.8 nM; koff [6]: 0.073 s⁻¹; ELISA, OD [7]: 0.1 OD; fold vs wt [4]: 1 x; ELISA, OD [8]: 0.37 OD |
| ch4-4-20 F372Y (antibody) |  |  |  |  |  |  |  |  |  | Kd [6]: 84.8 nM; ELISA, OD [9]: 1.55 OD; ELISA, OD [8]: 1 OD |
| ch4-4-20 H268N, P396L (antibody) | 46.6 nM | 1.04 | 0.036 s⁻¹ | 0.92 | 178 nM | 0.159 s⁻¹ | 2.2 x | 4.5 x |  | fold vs wt (soluble FcγRIIB (human)): 4.5 X; fold vs wt [4]: 2.2 X |
| ch4-4-20 K246I, K334N (antibody) |  |  |  |  |  |  |  |  |  | Kd [10]: 45.3 nM; Kd [6]: 100 nM; ELISA, OD [8]: 0.75 OD |
| ch4-4-20 K248M (antibody) |  | 1.03 |  | 0.977 |  |  |  |  |  | Kd ([2]; Fc variant MGFc 37): 100 nM; koff ([2]; Fc variant MGFc 37): 0.091 s⁻¹; Kd ([2]; Fc variant MGFc 40): 110 nM; koff ([2]; Fc variant MGFc 40): 0.09 s⁻¹ |
| ch4-4-20 K261N, K210M, P396L (antibody) |  | 0.85 |  | 1.29 |  |  | 2 x | 4.2 x |  |  |
| ch4-4-20 K288M, K334E (antibody) | 95.6 nM |  | 0.089 s⁻¹ |  | 75.4 nM | 0.1 s⁻¹ | 3 x |  | 1.1 OD | kon [3]: 1.37e+06 M⁻¹ s⁻¹; ELISA, OD [7]: 0.13 OD; fold vs wt [4]: 3 X |
| ch4-4-20 K288N, A330S, P396L (antibody) | 33.4 nM |  |  |  |  |  |  |  | 1 OD | Kd [10]: 41.3 nM; ELISA, OD [9]: 1.2 OD |
| ch4-4-20 K288R, T307A, K344E, P396L (antibody) |  | 0.89 |  | 1.27 |  |  | 4.1 x | 2.3 x |  |  |
| ch4-4-20 K326E (antibody) |  |  |  |  | 92 nM | 0.112 s⁻¹ | 2 x | 3.5 x | 1 OD | Kd [10]: 51.7 nM; koff [10]: 0.043 s⁻¹; kon [3]: 1.23e+06 M⁻¹ s⁻¹; ELISA, OD [9]: 1.25 OD |
| ch4-4-20 K334E, R292L (antibody) | 108 nM |  | 0.107 s⁻¹ |  | 70.2 nM | 0.105 s⁻¹ |  |  | 1.25 OD | kon [3]: 1.43e+06 M⁻¹ s⁻¹; ELISA, OD [7]: 0.1 OD |
| ch4-4-20 K392T, P396L (antibody) | 50 nM | 2.3 | 0.041 s⁻¹ | 1.64 | 84 nM | 0.104 s⁻¹ | 4.5 x | 2.5 x |  | fold vs wt (soluble FcγRIIB (human)): 2.5 X; fold vs wt [4]: 4.5 X |
| ch4-4-20 Mut 6 (S219V) (antibody) |  |  |  |  | 264 nM | 0.175 s⁻¹ |  |  | 0.6 OD | Kd [10]: 66.5 nM; koff [10]: 0.06 s⁻¹; kon [3]: 667000 M⁻¹ s⁻¹; koff [6]: 0.173 s⁻¹; ELISA, OD [9]: 0.35 OD |
| ch4-4-20 P217S, P396L (antibody) |  | 0.95 |  | 1.17 |  |  | 1.6 x | 4.5 x |  |  |
| chimeric 4-4-20 antibody, wild type Fc | 94 nM |  | 0.094 s⁻¹ |  | 198 nM |  |  |  | 0.5 OD | Kd [10]: 61.4 nM; koff [10]: 0.085 s⁻¹; koff [5]: 0.0847 s⁻¹; ELISA, OD [9]: 0.4 OD |
| soluble FcγRIIIA tetrameric complex (from UniProt P08637 17-203) (receptor) |  |  |  |  |  |  |  |  |  | EC50 (read off the curve) (monomeric human IgG [11]): 1 µg/mL; fold avidity vs monomeric receptor (monomeric human IgG [12]): 8 to 10 fold |
